The record followed here is patent US20200283478A1 (Genentech, published 2020).

Sequences and labels used below:
B1: SEQ ID NO 342 (peptide)
peptide: TAFTSWEEYLDWVGSGQISYLRNA
modifications: not fully specified; also: Q (1) D-amino acid, place in chain unclear (phage-displayed)

Ends that are not written are not given here.

T2 sequence (Q8NBP7 other isoform, or with tags, fused parts or gaps limits assumed): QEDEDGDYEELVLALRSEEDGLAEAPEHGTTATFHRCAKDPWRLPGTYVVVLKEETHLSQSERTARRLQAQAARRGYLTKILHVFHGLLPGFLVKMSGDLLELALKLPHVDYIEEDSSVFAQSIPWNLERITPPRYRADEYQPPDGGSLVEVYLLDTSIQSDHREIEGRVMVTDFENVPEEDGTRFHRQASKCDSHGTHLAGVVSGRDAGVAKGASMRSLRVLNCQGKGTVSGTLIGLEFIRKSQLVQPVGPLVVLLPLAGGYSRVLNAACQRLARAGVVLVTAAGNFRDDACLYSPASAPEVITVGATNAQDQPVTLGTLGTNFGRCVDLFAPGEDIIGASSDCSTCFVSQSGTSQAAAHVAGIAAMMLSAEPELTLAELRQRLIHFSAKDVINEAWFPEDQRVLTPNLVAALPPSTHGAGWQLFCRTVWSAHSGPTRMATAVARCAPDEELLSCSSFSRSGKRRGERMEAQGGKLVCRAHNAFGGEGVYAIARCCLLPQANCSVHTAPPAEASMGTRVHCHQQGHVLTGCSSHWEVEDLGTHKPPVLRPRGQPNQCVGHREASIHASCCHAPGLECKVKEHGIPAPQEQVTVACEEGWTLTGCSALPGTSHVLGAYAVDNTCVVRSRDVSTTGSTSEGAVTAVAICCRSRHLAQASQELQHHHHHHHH

The first assay deals with T1, PCSK9Δhelix (human, Chemically biotinylated in the phage ELISAs; the site is not given.).
T1 construct: construct M1-Q692 with engineered TEV site, cleaved by TEV; also called His-PCSK9Δhelix; open groove PCSK9Δhelix
T1 sequence (prodomain, as listed by the source mutant limits assumed, chain 1 of 2): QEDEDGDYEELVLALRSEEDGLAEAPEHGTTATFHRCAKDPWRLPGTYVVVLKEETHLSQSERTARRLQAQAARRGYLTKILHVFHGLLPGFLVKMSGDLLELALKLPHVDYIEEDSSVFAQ
T1 sequence (chain, as listed by the source mutant limits assumed, chain 2 of 2): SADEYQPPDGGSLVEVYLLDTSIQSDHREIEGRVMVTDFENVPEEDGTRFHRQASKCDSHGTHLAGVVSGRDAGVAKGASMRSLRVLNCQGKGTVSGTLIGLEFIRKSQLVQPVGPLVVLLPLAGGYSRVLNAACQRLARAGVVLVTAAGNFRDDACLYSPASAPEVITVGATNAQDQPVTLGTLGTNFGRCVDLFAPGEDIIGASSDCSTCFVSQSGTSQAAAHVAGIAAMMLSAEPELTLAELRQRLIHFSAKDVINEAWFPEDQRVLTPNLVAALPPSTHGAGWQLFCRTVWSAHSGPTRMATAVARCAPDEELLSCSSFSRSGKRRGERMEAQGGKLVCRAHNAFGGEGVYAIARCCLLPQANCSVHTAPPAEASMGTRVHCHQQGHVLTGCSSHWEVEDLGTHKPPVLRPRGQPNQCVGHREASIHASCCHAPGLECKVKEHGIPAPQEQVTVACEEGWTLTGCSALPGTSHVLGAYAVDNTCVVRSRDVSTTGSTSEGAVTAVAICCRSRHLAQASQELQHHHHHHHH
Kind of assay: phage spot ELISA. For orientation: In an ELISA, binding on a coated surface is turned into a signal by an enzyme label.
In the case of TAFTSWEEYLDWVGSGCLDRSGGCYTREGYLS [SEQ ID NO 353], the ELISA came to 3.05 and the s/n ratio was 30.4.
On the same counts, the results for TAFTSWEEYLDWVGSGGDCYPHCRLV [SEQ ID NO 359] are 2.85 and 28.5.
On the same counts, the results for TAFTSWEEYLDWVGSGRGEVYDKGGVIVHL [SEQ ID NO 343] are 2.83 and 30.1.
On the same counts, the results for TAFTSWEEYLDWVGSGGDCGYHYMCSMT [SEQ ID NO 345] are 2.63 and 25.5.
Consider B1, for which the ELISA came to 2.31 and the s/n ratio worked out at 22.6.
On the same counts, the results for TAFTSWEEYLDWVGSGCYPLCRVG [SEQ ID NO 355] are 3.05 and 29.6.
As to TAFTSWEEYLDWVGSGCYPLCRVL [SEQ ID NO 364], the ELISA came out at 3.09 and the s/n ratio came out at 31.9.
In the same order, the values of TAFTSWEEYLDWVGSGSSTWHFVGGVRV [SEQ ID NO 354] are 2.88 and 29.7.
In the same order, the values of TAFTSWEEYLDWVGSGCCSYGYEKCCNG [SEQ ID NO 349] are 2.88 and 27.2.
In the same order, the values of TAFTSWEEYLDWVGSGQVTSLPQA [SEQ ID NO 363] are 0.11 and 1.21.
Turning to TAFTSWEEYLDWVGSGGCGYRYMCDMINGL [SEQ ID NO 358], the ELISA turned out to be 3.01 and the s/n ratio was determined as 30.4.
Consider TAFTSWEEYLDWVGSGKCDSHYIRGVVACH [SEQ ID NO 356], for which the ELISA was 3.03 and the s/n ratio is 30.9.
On the same counts, the results for TAFTSWEEYLDWVGSGQTTYLRVSSS [SEQ ID NO 341] are 2.29 and 24.4.
In the same order, the values of TAFTSWEEYLDWVGSGNCARLYSHQRDYSQVC [SEQ ID NO 352] are 2.64 and 26.1.
TAFTSWEEYLDWVGSGPTSGLTPS [SEQ ID NO 361]: the ELISA came out at 0.127 and the s/n ratio turned out to be 1.3.
In the case of TAFTSWEEYLDWVGSGNMCYLRGKMDCNIV [SEQ ID NO 347], the ELISA came out at 2.83 and the s/n ratio was 28.6.
In the same order, the values of TAFTSWEEYLDWVGSGRCESKGWANTCVSE [SEQ ID NO 362] are 2.56 and 15.8.
With TAFTSWEEYLDWVGSGPRTYLRGLVD [SEQ ID NO 340], the ELISA stood at 2.73 and the s/n ratio was 25.1.
In the same order, the values of TAFTSWEEYLDWVGSGSETGLGTYYG [SEQ ID NO 350] are 2.78 and 25.5.
Take TAFTSWEEYLDWVGSGSPCRVGYTPC [SEQ ID NO 351]: the ELISA was 2.87 and the s/n ratio came to 25.4.
On the same counts, the results for TAFTSWEEYLDWVGSGKMTHMKAD [SEQ ID NO 357] are 0.106 and 1.07.
On the same counts, the results for TAFTSWEEYLDWVGSGVCSDHYIGGKEVRC [SEQ ID NO 348] are 2.94 and 15.4.
In the same order, the values of TAFTSWEEYLDWVGSGGREMRSVIQM [SEQ ID NO 344] are 2.74 and 26.6.
For the molecule TAFTSWEEYLDWVGSGQELPNHRRLS [SEQ ID NO 346], the ELISA stood at 2.43 and the s/n ratio was 14.3.
On the same counts, the results for TAFTSWEEYLDWVGSGDCLRYRVGSSCS [SEQ ID NO 360] are 2.87 and 28.9.

The next assay addresses T2, proprotein convertase subtilisin/kexin type 9 (PCSK9) (human, UniProt Q8NBP7 31-692).
T2 construct: His-tagged full-length PCSK9 in TR-FRET and SPR, biotinylated in phage ELISA; secreted protein is autoprocessed (prodomain plus catalytic/CRD chain starting at S153); also called rec.PCSK9; His-PCSK9
Kind of assay: phage spot ELISA.
Regarding TAFTSWEEYLDWVGSGCLDRSGGCYTREGYLS [SEQ ID NO 353], the ELISA amounted to 3.06 and the s/n ratio is 29.
In the same order, the values of TAFTSWEEYLDWVGSGGDCYPHCRLV [SEQ ID NO 359] are 2.86 and 28.9.
On the same counts, the results for TAFTSWEEYLDWVGSGRGEVYDKGGVIVHL [SEQ ID NO 343] are 2.84 and 30.5.
On the same counts, the results for TAFTSWEEYLDWVGSGGDCGYHYMCSMT [SEQ ID NO 345] are 2.75 and 25.
Consider B1, for which the ELISA worked out at 2.7 and the s/n ratio was 22.9.
For TAFTSWEEYLDWVGSGCYPLCRVG [SEQ ID NO 355], the ELISA worked out at 3.06 and the s/n ratio turned out to be 16.2.
On to TAFTSWEEYLDWVGSGCYPLCRVL [SEQ ID NO 364], for which the ELISA worked out at 2.86 and the s/n ratio came to 31.1.
As to TAFTSWEEYLDWVGSGSSTWHFVGGVRV [SEQ ID NO 354], the ELISA amounted to 2.71 and the s/n ratio amounted to 24.4.
On the same counts, the results for TAFTSWEEYLDWVGSGCCSYGYEKCCNG [SEQ ID NO 349] are 2.87 and 28.6.
On the same counts, the results for TAFTSWEEYLDWVGSGQVTSLPQA [SEQ ID NO 363] are 2.46 and 27.9.
On the same counts, the results for TAFTSWEEYLDWVGSGGCGYRYMCDMINGL [SEQ ID NO 358] are 2.92 and 32.8.
As to TAFTSWEEYLDWVGSGKCDSHYIRGVVACH [SEQ ID NO 356], the ELISA was 2.95 and the s/n ratio was determined as 30.2.
In the same order, the values of TAFTSWEEYLDWVGSGQTTYLRVSSS [SEQ ID NO 341] are 2.59 and 27.
As to TAFTSWEEYLDWVGSGNCARLYSHQRDYSQVC [SEQ ID NO 352], the ELISA is 2.66 and the s/n ratio amounted to 24.4.
For the molecule TAFTSWEEYLDWVGSGPTSGLTPS [SEQ ID NO 361], the ELISA came out at 2.66 and the s/n ratio worked out at 27.5.
As to TAFTSWEEYLDWVGSGNMCYLRGKMDCNIV [SEQ ID NO 347], the ELISA came to 2.91 and the s/n ratio was 30.9.
In the same order, the values of TAFTSWEEYLDWVGSGRCESKGWANTCVSE [SEQ ID NO 362] are 2.98 and 20.7.
On the same counts, the results for TAFTSWEEYLDWVGSGPRTYLRGLVD [SEQ ID NO 340] are 2.77 and 25.6.
On the same counts, the results for TAFTSWEEYLDWVGSGSETGLGTYYG [SEQ ID NO 350] are 2.81 and 28.1.
With TAFTSWEEYLDWVGSGSPCRVGYTPC [SEQ ID NO 351], the ELISA is 2.92 and the s/n ratio stood at 27.7.
In the same order, the values of TAFTSWEEYLDWVGSGKMTHMKAD [SEQ ID NO 357] are 2.31 and 22.4.
In the same order, the values of TAFTSWEEYLDWVGSGVCSDHYIGGKEVRC [SEQ ID NO 348] are 2.99 and 27.4.
On the same counts, the results for TAFTSWEEYLDWVGSGGREMRSVIQM [SEQ ID NO 344] are 2.71 and 28.2.
Consider TAFTSWEEYLDWVGSGQELPNHRRLS [SEQ ID NO 346], for which the ELISA came to 2.3 and the s/n ratio came to 19.1.
On the same counts, the results for TAFTSWEEYLDWVGSGDCLRYRVGSSCS [SEQ ID NO 360] are 3.04 and 29.6.
